Source: patent publication US6670160B2, “α1,2-fucosyltransferase” (priority 1998, dated 2003)
“And” between values parts separate entries of the source, which are not always exact repeats. Identical values can stand only once.

Experiments:
Assay type in all cases: biochemical
[1] = Reaction products by capillary electrophoresis, TMR-labeled acceptor LacNAc; conditions: acceptor LacNAc labeled with TMR; expected product H type 2
Source text: (§1) The reaction products synthesized from different acceptors by the Hp α1,2 FucT were further characterized by capillary electrophoresis with laser-induced fluorescence detection. The reaction mixture contained the overproduced UA802 α1,2 FucT protein (from pGEMI6 clone), GDP-fucose, and different acceptors labeled with tetramethylrhodamine (TMR). The results (FIG. 7) confirmed the data from the enzyme assay using radioactive labeled GDP-fucose (Table 3B) by identifying the products of the reactions.

[2] = Reaction products by capillary electrophoresis, TMR-labeled acceptor Le^a; conditions: acceptor Le^a labeled with TMR; authentic product Le^b
Source text: as §1

[3] = Fucosyltransferase assay (GDP-[3H]fucose), acceptor Type 1; conditions: for total activity: from 25 ml cell culture
Procedure: (§2) In a typical experiment, E. coli CLM4 (pGP1-2) cells haboring a plasmid carrying an H. pylori fucT gene (pBKHp763fucT39, pGEMH2, pGEMI6 or pGEMB3) were grown in 25 ml liquid LB medium with appropriate antibiotics (kanamycin and ampicillin) at 30° C. to an optical density of 0.5-0.7 at 600 nm. After being collected, the cells were washed once with M9 medium, resuspended in 5 ml of supplemented M9 medium, and farther incubated at 30° C. for 1 h. To induce the expression of the fucT gene, the cell culture was shifted to 42° C. by adding 5 ml prewarmed (55° C.) supplemented M9 medium. After incubation at 42° C. for 15 min, rifampicin was added to a final concentration of 200 μg/ml, and cell growth was continued at 42° C. for 20 min.
(§3) For analysis of the protein on SDS-PAGE, a small aliquot (0.5 ml) of the cell culture was taken, and 2.5 μl of [^35S]-methionine (4.35×10^13 Bq/mmol, 3.7×10^8 Bq/ml, NEN™, Boston, Mass.) was added. After further growth at 30° C. for 30 min, the cells were harvested, resuspended in 100 μl sample buffer (50 mM Tris-HCl, pH6.8, 1% (w/v) SDS, 20 mM EDTA, 1% (v/v) mercaptoethanol, 10% (v/v) glycerol), and boiled for 3 min before loading on to the gel. For the preparation of the sample for the enzyme assay, the remaining part (major aliquot, 9.5 ml) of the cell culture after induction was further incubated at 30° C. for 30 min, then harvested. The cells were washed with 1.5 ml of 20 mM HEPES (pH 7.0), and resuspended in 1.5 ml of this buffer supplemented with 0.5 mM PMSF.
(§4) Preparation of cell lysates or cell extracts for the fucosyltransferase assay. The E. coli cells containing overproduced Hp FucT proteins, which were in HEPES buffer with PMSF as described above, were disrupted with a French press at 7000 lb/in^2 at 4° C. The cell lysates were used directly for enzyme assays. For determining the location of the enzyme activities, the cytoplasmic and membrane fractions were separated as follows. The cell lysates were centrifuged at 13,000× g at 4° C. for 10 min. The cell debris were discarded and the supernatant was subjected to ultracentrifugation at 128,000× g (Beckman TL100/rotor 100.2) at 4° C. for 1 h. The supernatant was collected as the cytoplasmic fraction. The membrane pellets were resuspended in a small volume of the same buffer and treated with 1 M NaCl.
(§5) Assays of Hp α1,2 and a 1,3 FucT activities were carried out according to the method described by Chan et al. (1995, Glycobiology 5:683-688) with some modifications. Reactions were conducted at 37° C. for 20 min in a volume of 20 μl containing 1.8 mM acceptor, 50 μM GDP-fucose, 60000 dpm GDP-[^3H]fucose, 20 mM HEPES buffer (pH7.0), 20 mM MnCl2, 0.1 M NaCl, 35 mM MgCl2, 1 mM ATP, 5 mg/ml BSA, and 6.2 μl of the enzyme preparation. The acceptors used in this study were: LacNAc [βGal 1-4 βGlcNAc], Le^X [βGal 1-4 (α Fuc1-3) βGlcNAc], Type 1 [[…] 1-3 βGlcNAc], and Le^a [βGal 1-3 (α Fuc1-4) βGlcNAc]. GDP-[^3H]fucose (1.9×10^11 Bq/ml/mmol) was obtained from American Radiolabeled Chemicals Inc. (St. Louis, Mo.). Sep-Pak Plus C-18 reverse-phase cartridges were purchased from Waters (Mississauga, ON). For calculation of the specific activity of the enzyme (micro-units per milligram protein), protein concentrations of the cell extracts were determined with a BCA protein assay kit (Pierce, Rockford, Ill.) using BSA as a standard according to the supplier's instructions.

[4] = Reaction products by capillary electrophoresis, TMR-labeled acceptor Le^X; conditions: acceptor Le^X labeled with TMR; peak co-migrated with standard Le^Y
Source text: as §1

[5] = Fucosyltransferase assay (GDP-[3H]fucose), acceptor LacNAc
Procedure: as §2, §3
(§6) Preparation of cell lysates or cell extracts for the fucosyltransferase assay. […]
(§7) Assays of Hp α1,2 and a 1,3 FucT activities were carried out according to the method described by Chan et al. (1995, Glycobiology 5:683-688) with some modifications. […] For calculation of the specific activity of the enzyme (micro-units per milligram protein), protein concentrations of the cell extracts were determined with a BCA protein assay kit (Pierce, Rockford, Ill.) using BSA as a standard according to the supplier's instructions.

[6] = Fucosyltransferase assay (GDP-[3H]fucose), acceptor Le^X; conditions: for total activity: from 25 ml cell culture
Procedure: as §2, §3, §4, §5

[7] = Reaction products by capillary electrophoresis, TMR-labeled acceptor Type 1; conditions: acceptor Type 1 labeled with TMR; authentic product H type 1
Source text: as §1

[8] = Fucosyltransferase assay (GDP-[3H]fucose), acceptor Le^a
Procedure: as §2, §3, §6, §7

[9] = acceptor Type 1, cytoplasm fraction
[10] = acceptor Le^x, membrane fraction

B1: α1,2FucT (UA802): H. pylori UA802 α1,2-fucosyltransferase (SEQ ID NO:2), overexpressed in E. coli from plasmid pGEMI6 (protein)
chain: MAFKVVQICGGLGNQMFQYAFAKSLQKHLNTPVLLDTTSFDWSNRKMQLELFPIDLPYANAKEIAIAKMQHLPKLVRDALKYIGFDRVSQEIVFEYEPKLLKPSRLTYFFGYFQDPRYFDAISSLIKQTFTLPPPPENNKNNNKKEEEYQRKLSLILAAKNSVFVHIRRGDYVGIGCQLGIDYQKKALEYMAKRVPNMELFVFCEDLKFTQNLDLGYPFTDMTTRDKEEEAYWDMLLMQSCKHGIIANSTYSWWAAYLMENPEKIIIGPKHWLFGHENILCKEWVKIESHFEVKSQKYNA
reaction product in electropherogram [1]: no reaction product representing H type 2 was observed
reaction product in electropherogram [2]: new peaks co-migrating with authentic products
specific activity ([3]; acceptor Type 1, proposed product H type 1, E. coli whole cell extract): 309 ± 28 μU/mg
relative activity (percentage of the total activity) [3, 9]: 100%
specific activity ([3]; acceptor Type 1, cytoplasm fraction of E. coli CLM4 (pGP1-2, pGEMI6)): 78 μU/mg protein
total activity [3, 9]: 108 μU
specific activity ([3]; acceptor Type 1, membrane fraction of E. coli CLM4 (pGP1-2, pGEMI6)): 8 μU/mg protein
total activity ([3]; acceptor Type 1, membrane fraction): 3 μU
relative activity (percentage of the total activity) ([3]; acceptor Type 1, membrane fraction, listed as H. pylori α1,2 FucT): 3%
relative activity (percentage of the total activity) ([3]; acceptor Type 1, membrane fraction, listed as Hp α1,2 FucT): less than 3%
relative activity ([3]; acceptor Type 1, relative to UA802 α1,2 FucT on its best substrate Type 1): 100%
activity compared to Le^X ([3]; acceptor Type 1 versus Le^X): 2 fold
reaction product in electropherogram [4]: a small new peak was produced
specific activity ([5]; E. coli whole cell extract containing the overexpressed FucT protein): 14 ± 8 μU/mg
α1,2 FucT activity (in words) ([5]; enzyme from pGEMI6): almost no activity was detected
relative activity ([5]; relative to UA802 α1,2 FucT on its best substrate Type 1): 4.5%
specific activity ([6]; acceptor Le^X, proposed product Le^Y, E. coli whole cell extract): 150 ± 33 μU/mg
α1,2 FucT activity (in words) ([6]; acceptor Le^X, enzyme from pGEMI6): considerable activity was observed
activity in the membrane fraction (in words) ([6]; acceptor Le^X, membrane fraction): no detectable activity
relative activity ([6]; acceptor Le^X, relative to UA802 α1,2 FucT on its best substrate Type 1): 49%
relative activity (percentage of the total activity) ([6]; acceptor Le^x, cytoplasm fraction): 100%
specific activity ([6]; acceptor Le^x, cytoplasm fraction of E. coli CLM4 (pGP1-2, pGEMI6), listed as H. pylori α1,2 FucT): 41 μU/mg protein and 38 μU/mg protein
total activity ([6]; acceptor Le^x, cytoplasm fraction, listed as H. pylori α1,2 FucT): 54 μU and 49 μU
relative activity (percentage of the total activity) [6, 10]: 0%
specific activity ([6]; acceptor Le^x, membrane fraction of E. coli CLM4 (pGP1-2, pGEMI6)): 0 μU/mg protein
total activity [6, 10]: 0 μU
reaction product in electropherogram [7]: new peaks co-migrating with authentic products
activity compared to Le^X ([8]; acceptor Le^a versus Le^X): 2 fold
specific activity ([8]; acceptor Le^a, proposed product Le^b, E. coli whole cell extract): 301 ± 13 μU/mg
relative activity ([8]; acceptor Le^a, relative to UA802 α1,2 FucT on its best substrate Type 1): 97%
